Laboratory results reported in patent publication US20100310640A1 (published 2010).

Assays:
HLA-DR DRB1*1501 [1] = target: HLA-DR DRB1*1501 (human); assay: radioligand inhibition, purified HLA-DR
HLA-DR DRB1*1501 [2] = target: HLA-DR DRB1*1501 (human); assay: radioligand inhibition, purified HLA-DR; remark: listed apart in the source
HLA-DR DRB1*1501 [3] = target: HLA-DR DRB1*1501 (human); assay: radiolabeled-peptide inhibition, purified HLA-DR
HLA-DR DRB1*0301 [4] = target: HLA-DR DRB1*0301 (human); assay: radioligand inhibition, purified HLA-DR
HLA-DR DRB1*0701 [5] = target: HLA-DR DRB1*0701 (human); assay: radioligand inhibition, purified HLA-DR
HLA-DR DRB1*1302 [6] = target: HLA-DR DRB1*1302 (human); assay: radioligand inhibition, purified HLA-DR
HLA-DR DRB1*0401 [7] = target: HLA-DR DRB1*0401 (human); assay: radioligand inhibition, purified HLA-DR
HLA-DR DRB1*0101 [8] = target: HLA-DR DRB1*0101 (human); assay: radioligand inhibition, purified HLA-DR
HLA-DR DRB1*0401 [9] = target: HLA-DR DRB1*0401 (human); assay: radiolabeled-peptide inhibition, purified HLA-DR
HLA-DR DRB1*0101 [10] = target: HLA-DR DRB1*0101 (human); assay: radiolabeled-peptide inhibition, purified HLA-DR
HLA-DR DRB1*0701 [11] = target: HLA-DR DRB1*0701 (human); assay: radiolabeled-peptide inhibition, purified HLA-DR
HLA-DR DRB1*1501 [12] = target: HLA-DR DRB1*1501 (human); assay: radioligand inhibition, purified HLA-DR; remark: listed apart in the source
HLA-DR DRB1*1302 [13] = target: HLA-DR DRB1*1302 (human); assay: radioligand inhibition, purified HLA-DR; remark: listed apart in the source
HLA-DR DRB1*0701 [14] = target: HLA-DR DRB1*0701 (human); assay: radioligand inhibition, purified HLA-DR; remark: listed apart in the source
HLA-DR DRB1*0401 [15] = target: HLA-DR DRB1*0401 (human); assay: radioligand inhibition, purified HLA-DR; remark: listed apart in the source
HLA-DR DRB1*0101 [16] = target: HLA-DR DRB1*0101 (human); assay: radioligand inhibition, purified HLA-DR; remark: listed apart in the source
HLA-DR DRB3*0101 = HLA-DR DRB3*0101 (human); assay: radioligand inhibition, purified HLA-DR
HLA-DR DRB1*0301 [17] = target: HLA-DR DRB1*0301 (human); assay: radioligand inhibition, purified HLA-DR; remark: listed apart in the source

Work on VCGIQNSVSANRSDP [CEA.570 peptide 9012.0135] yielded an IC50 (HLA-DR DRB1*1501 [1]) of 8.98 µM.

ICELHCPALVTYNTD [Her2/neu.263] was tested, and the IC50 (HLA-DR DRB1*1501 [2]) was 0.748 µM.

Work on GMSYLEDVRLVHRDL [9019.0002] yielded an IC50 (HLA-DR DRB1*1501 [3]) of 0.567 µM.

In the case of KIPVAIKVLRENTSP [1622.03], the IC50 (HLA-DR DRB1*1501 [3]) is reported as 0.611 µM.

Binder EELLQMELLLVNKLK [Cyclin D1.135] has an IC50 (HLA-DR DRB1*0301 [4]) of 3.39 µM.

For LQGLPREYVNARHCL [9019.0064], the IC50 (HLA-DR DRB1*1501 [3]) was 0.423 µM.

TTPVTGASPGGLREL [Her2/neu.126] was tested, and the IC50 (HLA-DR DRB1*1501 [2]) was 17.1 µM.

In the case of SSYLSGANLNLSCHS [CEA.603 peptide 9012.0137], the IC50 (HLA-DR DRB1*1501 [1]) is reported as 13 µM.

ELPLQALVMGEGTCE [Peptide 9019.0182] gave an IC50 (HLA-DR DRB1*0701 [5]) of 15.6 µM, an IC50 (HLA-DR DRB1*1302 [6]) of 9.17 µM and an IC50 (HLA-DR DRB1*0401 [7]) of 6.78 µM. It also gave an IC50 (HLA-DR DRB1*0101 [8]) of 1.5 µM.

GHCWGPGPTQCVNCS [9019.0061] gave an IC50 (HLA-DR DRB1*0401 [9]) of 3.74 µM, an IC50 (HLA-DR DRB1*0101 [10]) of 1.91 µM and an IC50 (HLA-DR DRB1*0701 [11]) of 6.74 µM.

QYSWRINGIPQQHTQ [CEA.624 peptide 9019.0138] gave an IC50 (HLA-DR DRB1*1501 [1]) of 2.07 µM.

With PESFDGDPASNTAPL [9019.0048] the IC50 (HLA-DR DRB1*1501 [3]) was 0.805 µM.

EALLESSLRQAQQNM [Cyclin D1.252] was tested, and the IC50 (HLA-DR DRB1*1501 [2]) was 8.18 µM.

For LQRYSEDPTVPLPSE [Peptide 9019.0099], the IC50 (HLA-DR DRB1*1501 [12]) was 5.31 µM.

PERLAACGPPPVAPP [Peptide 9019.0179] was tested, and the IC50 (HLA-DR DRB1*1501 [12]) was 4.05 µM.

With ISAVVGILLVVVLGV [9019.0067] the IC50 (HLA-DR DRB1*1501 [3]) was 6 µM.

Work on RWCIPWQRLLLTASL [CEA.10 peptide 9019.0104] yielded an IC50 (HLA-DR DRB1*1501 [1]) of 0.061 µM.

Work on ITGYLYISAWPDSLP [9019.0050] yielded an IC50 (HLA-DR DRB1*1501 [3]) of 0.152 µM.

In the case of GDPLNNTTPVTGASP [Her2/neu.120], the IC50 (HLA-DR DRB1*1302 [13]) is reported as 1.03 µM, the IC50 (HLA-DR DRB1*0701 [14]) is reported as 13.2 µM and the IC50 (HLA-DR DRB1*0401 [15]) is reported as 7.46 µM. For the same binder, the IC50 (HLA-DR DRB1*0101 [16]) was 6.36 µM.

With MRKIVATWMLEVCEE [Cyclin D1.56] the IC50 (HLA-DR DRB1*1501 [2]) was 0.087 µM.

With RPRFRELVSEFSRMA [Peptide 9019.0095] the IC50 (HLA-DR DRB1*1501 [12]) was 0.348 µM.

WNLAAMTPHDFIEHF [Cyclin D1.150] was tested, and the IC50 (HLA-DR DRB1*0101 [16]) was 6.42 µM.

Work on SPGLSAGATVGIMIG [CEA.680 peptide 9019.0144] yielded an IC50 (HLA-DR DRB1*1501 [1]) of 3.93 µM.

With DNSIRPEELLQMELL [Cyclin D1.129] the IC50 (HLA-DR DRB1*1501 [2]) was 4.76 µM.

For KLCIYTDNSIRPEEL [Cyclin D1.123], the IC50 (HLA-DR DRB1*1501 [2]) was 0.025 µM.

TVGIMIGVLVGVALI [CEA.688 peptide 9019.05] showed an IC50 (HLA-DR DRB1*1501 [1]) of 7.77 µM.

FRELVSEFSRMARDP [Peptide 9019.0096] gave an IC50 (HLA-DR DRB3*0101) of 4.54 µM.

Work on SDVWSYGVTVWELMT [9019.0089] yielded an IC50 (HLA-DR DRB1*1501 [3]) of 1.88 µM.

Work on GATLERPKTLSPGKN [Peptide 9019.0102] yielded an IC50 (HLA-DR DRB1*1302 [6]) of 5.33 µM, an IC50 (HLA-DR DRB1*0401 [7]) of 2.79 µM and an IC50 (HLA-DR DRB1*0101 [8]) of 1.81 µM.

LPRVGCPALPLPPPP [Peptide 9919.0173] gave an IC50 (HLA-DR DRB1*1302 [6]) of 8.94 µM, an IC50 (HLA-DR DRB1*0401 [7]) of 6.54 µM and an IC50 (HLA-DR DRB1*0101 [8]) of 1.91 µM.

For CAELVREPGCGCCSV [Peptide 9019.0015], the IC50 (HLA-DR DRB1*0301 [17]) was 12.3 µM.

With INGIPQQHTQVLFIA [CEA.629 peptide 9019.0139] the IC50 (HLA-DR DRB1*1501 [1]) was 8.29 µM.

SEGGLVENHVDSTMN [Peptide 9019.0183] gave an IC50 (HLA-DR DRB1*0701 [5]) of 4.62 µM and an IC50 (HLA-DR DRB1*0401 [7]) of 1.2 µM.

SITVSASGTSPGLSA [CEA.671 peptide 9919.0143] showed an IC50 (HLA-DR DRB1*1501 [1]) of 3.11 µM.

ILLVVVLGVVFGILI [9019.0068] showed an IC50 (HLA-DR DRB1*1501 [3]) of 7.12 µM.

Work on PSGVKPDLSYMPIWK [9019.0065] yielded an IC50 (HLA-DR DRB1*0101 [10]) of 1.03 µM.

With ICTIDVYMIMVKCWM [Peptide 1622.04] the IC50 (HLA-DR DRB1*1501 [12]) was 2.65 µM.

Work on APTIRGDPECHLFYN [Peptide 9019.0022] yielded an IC50 (HLA-DR DRB1*1501 [12]) of 3.67 µM.

Binder SDSVILNVLYGPDAP [CEA.123 peptide 9019.0119 (position 226)] has an IC50 (HLA-DR DRB1*1501 [1]) of 0.351 µM.

In the case of CYGLGMEHLREVRAV [9019.0044], the IC50 (HLA-DR DRB1*1501 [3]) is reported as 0.69 µM.
